Molecular target: the molecule itself
Assay: SEC; HiLoad 16/600 Superdex 200 pg, 25 mM Tris, 300 mM NaCl pH 7.0, 277 K; preparative step after IMAC

B1: Triosephosphate isomerase from Fasciola hepatica (enzyme)
chain: MASNRKFFVGGNWKMNGSKESNQKLLKTLSDAKPDANTEILVAVPFVYLKDVREHLDKRFHVAAQNCYKVASGAFTGEISPAMIRDCGCEWVILGHSERRHIFGESDELIGEKVNHALTCGLKVVPCIGEKLDEREAGKTEQVCFRQLDAIKKGIPKAEDWSRVVIAYEPVWAIGTGKTASPEQAQEVHHAVRQWLEKNVSQAVASSLRITYGGSVTAANCKELAKKPDVDGFLVGGASLKPEFVDICNANRG
notes: triosephosphate isomerase (EC 5.3.1.1), Fasciola hepatica; gene in plasmid pET-46 Ek/LIC; The plasmid was provided by D. Timson (construct of Zinsser et al., 2013); also called FhTPI; F. hepatica TPI; source: E. coli Rosetta (DE3), purified (IMAC, SEC)
stoichiometry N: 2

Reference: PMC12400196, “Triosephosphate isomerase from Fasciola hepatica: high-resolution crystal structure as a drug target” (Acta Crystallographica Section F: Structural Biology …, 2025)
